Data from patent US20230233645A1, “EFFECTIVE TREATMENTS FOR VASCULAR ASSOCIATED MACULOPATHY, SEVERE MACULOPATHY, LATE-STAGE MACULOPATHY, AND ABERRANT CHORIOCAPILLARIS” (UNIVERSITY OF UTAH RESEARCH FOUNDATION, priority 2011, published 2023).

Legend:
HTRA1 = HTRA1 (Homo sapiens, UniProt Q92743); settings: binds covalently to the active-site serine of HTRA1; cited from earlier work
DQ elastin = experiment: In vitro elastin degradation assay using DQ elastin; assay type: biochemical; settings: DQ elastin substrate
Description: Therefore, studies were performed to determine whether HTRA1 degrades elastin, a major component of Bruch's membrane. Recombinant HTRA1 was incubated with dye-labeled elastin at 37° C. for two hrs and the fluorescence of the released elastin peptides was monitored at 513 nm. […] In an additional positive control assay, HTRA1 elastase activity was measured by fluorescence using various concentrations of elastase enzyme starting with 0.04 ng/well of porcine pancreatic elastase and 100 ng/well of ProteaImmun HtrA1. DQ Elastin substrate was 25 ug/ml.
Recombinant HtrA1 protein expressed and purified from Sf9 cells was purchased from ProteaImmun (Cat. #30600103). The HtrA1 elastase activity was measured using a fluorescent EnzChekElastase Assay Kit from Invitrogen (Cat. #E12056) using the protocol provided, except substrate concentration was 12.5 µg/mL. HtrA1 concentration was titrated from 200-12.5 ng/well in two-fold dilutions. Activity was measured in 30-minute increments for a total of 2 hours.
The explanation for the elastin degradation in both the Bruch's membrane and the choroid vessels in the HTRA1 mice is that the protease activity of overexpressed HTRA1, which is secreted from RPE, caused the degeneration. Since HTRA1 was not known to have elastase activity, an in vitro elastin degradation assay was performed using DQ elastin, a soluble elastin labeled with quenched BODIPY FL dye, as a substrate. Purified recombinant human HTRA1 degraded elastin with a specific activity of 4.4±0.8 u/mg (n=3). […] To eliminate the possibility that the depletion of the elastic layers of the choroidal vessels and Bruch's membrane was the result of downregulation of elastin expression, we analyzed the protein level of soluble elastin in the RPE/choroid of hHTRA1^+ and WT mice by western blot. […] This is similar to what has been observed in human donors with AMD and with aberrant choriocapillaris lobules.

HTRA1, sequence (Q92743 23-480): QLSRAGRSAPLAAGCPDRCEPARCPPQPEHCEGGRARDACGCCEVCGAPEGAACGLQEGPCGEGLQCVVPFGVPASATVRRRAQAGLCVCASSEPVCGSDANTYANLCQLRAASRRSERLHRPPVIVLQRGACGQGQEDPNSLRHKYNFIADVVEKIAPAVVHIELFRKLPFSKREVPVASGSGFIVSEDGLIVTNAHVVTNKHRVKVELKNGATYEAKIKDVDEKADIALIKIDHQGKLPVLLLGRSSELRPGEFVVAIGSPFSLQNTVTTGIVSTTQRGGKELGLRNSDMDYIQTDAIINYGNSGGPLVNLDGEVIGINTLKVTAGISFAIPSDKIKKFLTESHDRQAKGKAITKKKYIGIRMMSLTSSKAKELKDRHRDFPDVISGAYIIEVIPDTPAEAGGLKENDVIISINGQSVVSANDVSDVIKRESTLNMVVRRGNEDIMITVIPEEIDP

Substance	IC50 (HTRA1) [nM]	specific activity of elastin degradation (DQ elastin) [u/mg]	elastase activity, times less than that of porcine pancreas elastase (DQ elastin) [times]
DPMFKLboroV	2600		
porcine pancreas elastase: reference elastase enzyme		135±5.5	
recombinant human HTRA1: purified recombinant human HTRA1 serine protease		4.4±0.8	~30
